Entries after “also recorded” stand apart in the source; their conditions may differ. Numbered stars: 1 amine (or outer) side, 2 acyl side, 3 side chain; on linkers, the order of the positions; unused ones are H or OH. Square brackets hold non-standard residues; d marks the D form. Peptide text beside a SMILES is read from it. * marks the point of attachment. NOTA = O=C(O)CN1CCN(CC(=O)O)CCN(CC(=O)*)CC1; γGlu = O=C(O)[C@H](CCC(=O)[*:2])N[*:1]; Sta = CC(C)C[C@H](N)[C@@H](O)CC(=O)O; AEEA = NCCOCCOCC(=O)O; Aoc = NCCCCCCCC(=O)O; CO = O=C([*:1])[*:2]
Key:
PC3-pip xenografts [1] = assay: nanoScan PET/CT imaging of PC3-pip xenografted mice; format: in vivo, BALB/c nu/nu mice; details: 100 pmol, 8 MBq, n = 2
Procedure: Immediately after the PET scan, a CT scan was performed using a nanoScan SPECT/CT camera (Mediso Medical Imaging System Ltd., Budapest, Hungary) with the same bed. […] Imaging of the non-blocked (n = 2) and the PSMA/GRPR-blocked (n = 2) groups was performed at 1 and 3 h pi. Reconstruction of the PET/CT scans was conducted using Nucline nanoScan 3.04.014.0000 software.

PSMA and GRPR = assay: In vitro binding specificity (blocking) in PC3-pip cells; format: cell-based, human; details: 1 h 37 °C
Procedure: (§1) In vitro experiments were carried out using the PSMA- and GRPR-expressing human prostate carcinoma PC3-pip cell line (obtained from Prof. Martin Pomper, The Johns Hopkins University, Baltimore, MD, USA). Cells (5–7 × 10^5 cells/vial) were seeded 24–48 h before the experiments. All experiments were performed in triplicate.
To block the targets, cells were incubated at room temperature for 15 min with an excess (750 nM/well) of PSMA-11 (to block PSMA) and/or NOTA-PEG2-RM26 (to block GRPR). […] After 1 h, cells were collected, and the radioactive content was measured using an automated gamma counter.

PC3-pip cell line = assay: Cellular processing in PC3-pip cells; format: cell-based, human; details: 1 nM, 37 °C
Procedure: as §1
At selected time points (1 and 3 h), cells were collected, and the total cell-associated activity was measured using an automated gamma counter. At 3 h, the membrane-bound and internalised fractions were collected separately using the acid and base method described earlier.

[2] = Excerpt: The average animal weight was 27.4 ± 1.6 g and OLINDA/EXM 1.0 software (adult male phantom) was used to estimate the absorbed doses.
The well-established “percent kg/g method” using Equation (1) was used to upscale the uptake values in mice to be able to evaluate the dosimetry in humans. The organ weights of the reference adult male were used to calculate the organ uptake in humans and the area under the curve of exponential fits for human time–activity curves was used to calculate the residence times. (%IA/organ)human = [(%IA/g)animal × (kBqTBweight)animal × (gorgan/(kBqTBweight)human](1)

[3] = Stability in PBS and EDTA challenge; format: physicochemical; details: 1 h, ITLC
[4] = 37 °C, 1 h, ITLC
Procedure: After 1 h, samples were taken from all solutions and analysed by ITLC.

PC3-pip xenografts [5] = assay: in vivo; details: non-blocked
Procedure: Ex vivo experiments and in vivo imaging were carried out using BALB/c nu/nu mice bearing PC3-pip xenografts. All studies were performed according to the guidelines of the Declaration of Helsinki and approved by the Ethics Committee for Animal Research in Uppsala, Sweden (5.8.18-00473/2021. Approved on 26 February 2021).
There were 4 mice in each group. At 1 and 3 h pi, mice were sacrificed after an intraperitoneal injection of a Ketalar–Rompun solution (20 μL/g body weight) consisting of Ketalar (10 mg/mL) and Rompun (1 mg/mL), followed by heart puncture.

Wistar rats = assay: Acute and subacute toxicity in rats; format: in vivo
Procedure: The animals were kept in a barrier-type animal facility under standard housing conditions. […] The dose of heterodimer for toxicological studies was calculated based on cross-species dose conversion using body surface area scaling: the maximum dose for the clinical study was chosen to be 300 µg of heterodimer per 75 kg patient, or […], which corresponds to [(4 µg × 427 g)/1000 g] × 6 = 10.3 µg per rat. Ten rats from each group were euthanized at 24 h pi and five rats at 28 days pi. The body weight of the rats was controlled at baseline, at 24 h after administration for the acute toxicity group, and every second day for the subacute toxicity group. Biochemical blood tests on alanine aminotransferase, albumin, aspartate aminotransferase, bilirubin, glucose, creatinine, urea, the total amount of proteins, cholesterol, and ALT were performed before the euthanasia. Necropsy of the experimental rats was performed, and the weights of the brain, heart, lungs, liver, adrenal glands, kidneys, spleen, testes, and thymus were measured.

[6] = 3 h, acid and base method, triplicate
[7] = estimated for adult male from mouse ex vivo data, percent kg/g method, OLINDA/EXM 1.0

In the case of `CC(C)C[C@H](NC(=O)C[C@H](O)[C@H](CC(C)C)NC(=O)[C@H](Cc1c[nH]cn1)NC(=O)CNC(=O)[C@@H](NC(=O)[C@H](C)NC(=O)[C@H](Cc1c[nH]c2ccccc12)NC(=O)[C@H](CCC(N)=O)NC(=O)[C@@H](Cc1ccccc1)NC(=O)COCCOCCNC(=O)[C@H](CCCCNC(=O)CN1CCN(CC(=O)O)CCN(CC(=O)O)CC1)NC(=O)[C@H](Cc1ccccc1)NC(=O)CCCCCCCNC(=O)CC[C@H](NC(=O)N[C@@H](CCC(=O)O)C(=O)O)C(=O)O)C(C)C)C(N)=O` [[^68Ga]Ga-BQ7812, metal not drawn] ({Glu-CO-γGlu-Aoc}-FK(NOTA)[AEEA][dF]QWAVGH[Sta]L-NH2), the “PET/CT visualisation, non-blocked” value (PC3-pip xenografts [1]; 1 and 3 h pi) is reported as “elevated activity uptake could be visualised in the kidneys and the tumour”, the “PET/CT visualisation of tumour upon blocking of PSMA and GRPR” value (PC3-pip xenografts [1]; co-injected NOTA-PEG2-RM26 and PSMA-11 (5 nmol each)) is reported as “the tumour is no longer visualised” and the “Uptake in cells pre-saturated with both blocking agents compared to either one” value (PSMA and GRPR; 20 nM tracer) is reported as “significantly lower”. The “Activity uptake after pre-saturation of GRPR compared to naive cells” value (PSMA and GRPR; excess NOTA-PEG2-RM26, 20 nM tracer, triplicate, p < 0.05) was “significant decrease”, the “Activity uptake after pre-saturation of PSMA compared to naive cells” value (PSMA and GRPR; excess PSMA-11, 20 nM tracer, triplicate, p < 0.05) was “significant decrease” and the “Activity uptake after pre-saturation of PSMA and GRPR compared to naive cells” value (PSMA and GRPR; excess PSMA-11 and NOTA-PEG2-RM26, 20 nM tracer, triplicate, p < 0.05) was “significant decrease”. For the same molecule, the “Binding to the targets in cellular processing” value (PC3-pip cell line; 1 and 3 h) was “rapid binding”, the “Internalised fraction of total cell-associated activity” value (PC3-pip cell line; [6]) was “approximately 20%” and the “Membrane-bound fraction of total cell-associated activity” value (PC3-pip cell line; [6]) was about 80%. The “Total dose per scan” value ([2]; after injection of 200–300 MBq, from estimated effective dose) was 1.66–2.49 mSv, the “Absorbed doses in the remaining organs and tissues (other than kidneys, heart wall, lower large intestine wall)” value ([2]; estimated for adult male from mouse ex vivo data) was “below 0.02 mSv/MBq” and the “Absorbed Dose, Adrenals” value [2, 7] was 0.0043 mGy/MBq. For the same molecule, the “Absorbed Dose, Brain” value [2, 7] was 0.0007 mGy/MBq, the “Absorbed Dose, Breasts” value [2, 7] was 0.0030 mGy/MBq and the “Absorbed Dose, Gallbladder wall” value [2, 7] was 0.0042 mGy/MBq. For the same molecule, the “Absorbed Dose, Heart wall” value [2, 7] was 0.0265 mGy/MBq, the “Absorbed Dose, Kidneys” value [2, 7] was 0.0660 mGy/MBq and the “Absorbed Dose, Liver” value [2, 7] was 0.0044 mGy/MBq. For the same molecule, the “Absorbed Dose, Lower large intestine wall” value [2, 7] was 0.0250 mGy/MBq, the “Absorbed Dose, Lungs” value [2, 7] was 0.0041 mGy/MBq and the “Absorbed Dose, Muscle” value [2, 7] was 0.0024 mGy/MBq. The “Absorbed Dose, Osteogenic cells” value [2, 7] was 0.0080 mGy/MBq, the “Absorbed Dose, Ovaries” value [2, 7] was 0.0045 mGy/MBq and the “Absorbed Dose, Pancreas” value [2, 7] was 0.0186 mGy/MBq. The “Absorbed Dose, Red marrow” value [2, 7] was 0.0057 mGy/MBq, the “Absorbed Dose, Skin” value [2, 7] was 0.0026 mGy/MBq and the “Absorbed Dose, Small intestine wall” value [2, 7] was 0.0199 mGy/MBq. For the same molecule, the “Absorbed Dose, Spleen” value [2, 7] was 0.0033 mGy/MBq, the “Absorbed Dose, Stomach wall” value [2, 7] was 0.0048 mGy/MBq and the “Absorbed Dose, Testes” value [2, 7] was 0.0030 mGy/MBq. The “Absorbed Dose, Thymus” value [2, 7] was 0.0038 mGy/MBq, the “Absorbed Dose, Thyroid” value [2, 7] was 0.0030 mGy/MBq and the “Absorbed Dose, Total body” value [2, 7] was 0.0044 mGy/MBq. For the same molecule, the “Absorbed Dose, Upper large intestines LI wall” value [2, 7] was 0.0111 mGy/MBq, the “Absorbed Dose, Urinary bladder wall” value [2, 7] was 0.0036 mGy/MBq and the “Absorbed Dose, Uterus” value [2, 7] was 0.0042 mGy/MBq. For the same molecule, the Effective dose [2, 7] was 0.0083 mSv/MBq, the Effective dose equivalent [2, 7] was 0.0124 mSv/MBq and the “Release of free gallium-68 under EDTA challenge” value ([3]; 1000-fold molar excess EDTA) was “minor release”. For the same molecule, the “Release of free gallium-68 in PBS” value ([3]; PBS, room temperature) was “minor release”, the “Release of free gallium-68 in human serum” value [4] was “no release of free gallium-68 was detected” and the “Stability in human serum” value [4] was “stable”. The “Activity uptake in the kidneys at 3 h pi as % of uptake at 1 h pi” value (PC3-pip xenografts [5]) was 26%, the “Activity uptake in the pancreas at 3 h pi as % of uptake at 1 h pi” value (PC3-pip xenografts [5]) was 11% and the “Activity uptake in the tumour at 3 h pi as % of uptake at 1 h pi” value (PC3-pip xenografts [5]) was 55%. The “Clinical or biochemical parameters in toxicological studies” value (Wistar rats; single iv bolus 10.3 μg (10 MBq for labelled), 24 h and 28 days pi, vs control groups) was “no changes” and the Toxicity conclusion (Wistar rats; single iv bolus 10.3 μg, acute (24 h) and subacute (28 days)) was “absence of toxicity; also recorded: safe toxicological profile”.
